The text below walks through data of patent publication US20200283475A1.

Assay [1] deals with human polyclonal IgG (Gammanorm) (human). In words: SPR; ratio of remaining capacity to reference Zvar1.
For assay [2] the target is unchanged. In words: SPR, ligand on chip; signal left after 96-100 CIP cycles 0.5 M NaOH. On the technique in general: In SPR one partner is held on a chip, and binding of the other changes the refractive index at the surface.

As to Zvar(N11E,Q32E,K50R)1 (designed binder), the Capacity relative to reference in assay [1] is 1.04. Further, in assay [2], the Capacity after 96-100 cycles was 53%.
In the case of “Zvar(N11K,H18K,D37E,A42R,N43A,L44I)1 (designed binder)”, the Capacity relative to reference in assay [1] came out at 1.31. The Capacity after 96-100 cycles in assay [2] came out at 59%.
The corresponding values for “Zvar(N11K,H18K,S33K,D37E,A42R,N43A,L44I,K50R,L51Y)1 (designed binder)” are 1.46 and 67%.
Take “Zvar(Q9A,N11E,A29D,Q40V,A42K,N43A,L44I)1 (designed binder)”: the Capacity relative to reference in assay [1] worked out at 1.19. Further, the Capacity after 96-100 cycles in assay [2] amounted to 56%.
In the case of “Zvar(Q9A,N11E,A29E,Q40V,A42K,N43A,L44I)1 (designed binder)”, the Capacity relative to reference in assay [1] came out at 1.21. Further, the Capacity after 96-100 cycles in assay [2] worked out at 57%.
“Zvar(Q9A,N11E,A29F,Q40V,A42K,N43A,L44I)1 (designed binder)”: in assay [1], the Capacity relative to reference is 1.35. In assay [2], this substance gave a Capacity after 96-100 cycles of 62%.
With “Zvar(Q9A,N11E,A29H,Q40V,A42K,N43A,L44I)1 (designed binder)”, in assay [1], the Capacity relative to reference was determined as 1.21. This substance also displayed a Capacity after 96-100 cycles in assay [2] of 57%.
Take “Zvar(Q9A,N11E,A29I,Q40V,A42K,N43A,L44I)1 (designed binder)”: the Capacity relative to reference in assay [1] was determined as 1.23. For the same substance, the Capacity after 96-100 cycles in assay [2] amounted to 58%.
As to “Zvar(Q9A,N11E,A29K,Q40V,A42K,N43A,L44I)1 (designed binder)”, the Capacity relative to reference in assay [1] amounted to 1.28. Besides, in assay [2], the Capacity after 96-100 cycles is 59%.
The corresponding values for “Zvar(Q9A,N11E,A29L,Q40V,A42K,N43A,L44I)1 (designed binder)” are 1.33 and 61%.
The corresponding values for “Zvar(Q9A,N11E,A29M,Q40V,A42K,N43A,L44I)1 (designed binder)” are 1.32 and 62%.
In the case of “Zvar(Q9A,N11E,A29N,Q40V,A42K,N43A,L44I)1 (designed binder)”, in assay [1], the Capacity relative to reference was found to be 1.3. This substance also came in with a Capacity after 96-100 cycles in assay [2] of 61%.
Turning to “Zvar(Q9A,N11E,A29Q,Q40V,A42K,N43A,L44I)1 (designed binder)”, the Capacity relative to reference in assay [1] was found to be 1.28. The substance also displayed a Capacity after 96-100 cycles in assay [2] of 60%.
Turning to “Zvar(Q9A,N11E,A29R,Q40V,A42K,N43A,L44I)1 (designed binder)”, the Capacity relative to reference in assay [1] was determined as 1.26. The same substance showed a Capacity after 96-100 cycles in assay [2] of 58%.
For “Zvar(Q9A,N11E,A29S,Q40V,A42K,N43A,L44I)1 (designed binder)”, in that order: 1.38 and 66%.
As for “Zvar(Q9A,N11E,A29T,Q40V,A42K,N43A,L44I)1 (designed binder)”, in assay [1], the Capacity relative to reference came to 1.28. This substance also came in with a Capacity after 96-100 cycles in assay [2] of 60%.
“Zvar(Q9A,N11E,A29V,Q40V,A42K,N43A,L44I)1 (designed binder)”: the Capacity relative to reference in assay [1] amounted to 1.32. In addition, in assay [2], the Capacity after 96-100 cycles worked out at 62%.
With “Zvar(Q9A,N11E,A29W,Q40V,A42K,N43A,L44I)1 (designed binder)”, the Capacity relative to reference in assay [1] was 1.3. The Capacity after 96-100 cycles in assay [2] worked out at 60%.
In the case of “Zvar(Q9A,N11E,A29Y,Q40V,A42K,N43A,L44I)1 (designed binder)”, the Capacity relative to reference in assay [1] was 1.27. Moreover, in assay [2], the Capacity after 96-100 cycles came to 61%.
Regarding “Zvar(Q9A,N11E,N28A,Q40V,A42K,N43A,L44I)1 (designed binder)”, the Capacity relative to reference in assay [1] was 1.35. In assay [2], this substance displayed a Capacity after 96-100 cycles of 65%.
Take “Zvar(Q9A,N11E,Q40V,A42K,N43A,L44I,D53F)1 (designed binder)”: the Capacity relative to reference in assay [1] came to 1.26. Moreover, the Capacity after 96-100 cycles in assay [2] amounted to 58%.
On to “Zvar(Q9A,N11E,Q40V,A42K,N43A,L44I,D53K)1 (designed binder)”, for which the Capacity relative to reference in assay [1] stood at 1.41. In addition, the Capacity after 96-100 cycles in assay [2] was determined as 65%.
